The results in this text go back to patent US20250049960, “Multicomponent systems for site-specific genome modifications” (The Regents of the University of California, published 2025).

Conditions in all cases: tags: N-terminal FLAG (GT linker), from HEK293T
Series [1] has as its target T1, BoMo R2 RT (Bombyx mori).
T1 chain: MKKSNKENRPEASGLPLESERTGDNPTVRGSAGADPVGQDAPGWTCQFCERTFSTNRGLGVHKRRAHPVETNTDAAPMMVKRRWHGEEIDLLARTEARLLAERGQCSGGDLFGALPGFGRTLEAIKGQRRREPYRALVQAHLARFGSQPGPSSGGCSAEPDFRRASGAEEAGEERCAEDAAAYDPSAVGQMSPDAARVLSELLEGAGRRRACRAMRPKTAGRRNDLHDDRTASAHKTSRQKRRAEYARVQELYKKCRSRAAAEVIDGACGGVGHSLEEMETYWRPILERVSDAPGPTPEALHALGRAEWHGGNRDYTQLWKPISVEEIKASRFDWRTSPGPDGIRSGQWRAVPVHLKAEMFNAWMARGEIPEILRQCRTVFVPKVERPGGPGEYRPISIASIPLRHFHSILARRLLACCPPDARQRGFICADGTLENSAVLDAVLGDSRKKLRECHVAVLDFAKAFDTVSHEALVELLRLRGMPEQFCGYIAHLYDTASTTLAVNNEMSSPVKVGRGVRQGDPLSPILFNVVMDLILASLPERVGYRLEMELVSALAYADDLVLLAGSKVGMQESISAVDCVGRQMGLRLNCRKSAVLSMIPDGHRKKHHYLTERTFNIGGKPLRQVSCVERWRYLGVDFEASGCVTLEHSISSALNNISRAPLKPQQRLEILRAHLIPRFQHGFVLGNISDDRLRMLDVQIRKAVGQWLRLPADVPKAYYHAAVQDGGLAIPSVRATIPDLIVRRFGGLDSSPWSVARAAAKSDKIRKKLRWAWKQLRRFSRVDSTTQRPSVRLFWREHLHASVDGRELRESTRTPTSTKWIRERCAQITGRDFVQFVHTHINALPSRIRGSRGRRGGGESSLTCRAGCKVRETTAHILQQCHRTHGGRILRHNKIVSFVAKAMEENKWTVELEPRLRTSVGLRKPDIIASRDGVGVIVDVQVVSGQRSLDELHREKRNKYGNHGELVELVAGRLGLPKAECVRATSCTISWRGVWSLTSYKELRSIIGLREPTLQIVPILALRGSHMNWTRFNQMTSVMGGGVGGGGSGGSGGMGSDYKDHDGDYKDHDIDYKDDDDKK
Kind of series: pulldown; co-expressed in HEK293T, FLAG IP, non-cognate. The source says: (§1) 9 populations of HEK293T cells were transfected with different combinations of plasmids comprised of one of the pcDNA3.1 backbone plasmids expressing RT protein ORFs modified from B. mori (SEQ ID NO. 35, D. simulans (SEQ ID NO. 32), and O. latipes (SEQ ID NO. 8), and an additional plasmid expressing the 3′ UTR RNA from B. mori (SEQ ID 163), D. simulans (SEQ ID NO. 164), or O. latipes (SEQ ID NO. 154) R2 elements (see FIG. 11 A). Each RT protein was co-expressed with each 3′ UTR RNA.
(§2) After allowing sufficient time for the RT protein plasmids to be transcribed and translated and to associate with the transcribed 3′ UTR RNAs, cells were lysed and any RT protein+RNA template complexes were purified by FLAG immunopurification (Sigma FLAG antibody resin). RNA present in each input cell lysate and RNA associated with each immunopurified sample was purified. Equivalent aliquots of each input RNA sample and each RT-bound RNA sample were affixed to Hybond N+membrane (Cytiva) in a grid of spots. Membranes containing spots for each type of 3′ UTR RNA were probed together for the presence of the 3′ UTR RNA, as detected by hybridization to complementary oligonucleotide probes that were ³²P 5′-end-radiolabeled using T4 polynucleotide kinase (NEB). […]

The next series concerns the target T2, OrLa R2 RT (Oryzias latipes).
T2 chain: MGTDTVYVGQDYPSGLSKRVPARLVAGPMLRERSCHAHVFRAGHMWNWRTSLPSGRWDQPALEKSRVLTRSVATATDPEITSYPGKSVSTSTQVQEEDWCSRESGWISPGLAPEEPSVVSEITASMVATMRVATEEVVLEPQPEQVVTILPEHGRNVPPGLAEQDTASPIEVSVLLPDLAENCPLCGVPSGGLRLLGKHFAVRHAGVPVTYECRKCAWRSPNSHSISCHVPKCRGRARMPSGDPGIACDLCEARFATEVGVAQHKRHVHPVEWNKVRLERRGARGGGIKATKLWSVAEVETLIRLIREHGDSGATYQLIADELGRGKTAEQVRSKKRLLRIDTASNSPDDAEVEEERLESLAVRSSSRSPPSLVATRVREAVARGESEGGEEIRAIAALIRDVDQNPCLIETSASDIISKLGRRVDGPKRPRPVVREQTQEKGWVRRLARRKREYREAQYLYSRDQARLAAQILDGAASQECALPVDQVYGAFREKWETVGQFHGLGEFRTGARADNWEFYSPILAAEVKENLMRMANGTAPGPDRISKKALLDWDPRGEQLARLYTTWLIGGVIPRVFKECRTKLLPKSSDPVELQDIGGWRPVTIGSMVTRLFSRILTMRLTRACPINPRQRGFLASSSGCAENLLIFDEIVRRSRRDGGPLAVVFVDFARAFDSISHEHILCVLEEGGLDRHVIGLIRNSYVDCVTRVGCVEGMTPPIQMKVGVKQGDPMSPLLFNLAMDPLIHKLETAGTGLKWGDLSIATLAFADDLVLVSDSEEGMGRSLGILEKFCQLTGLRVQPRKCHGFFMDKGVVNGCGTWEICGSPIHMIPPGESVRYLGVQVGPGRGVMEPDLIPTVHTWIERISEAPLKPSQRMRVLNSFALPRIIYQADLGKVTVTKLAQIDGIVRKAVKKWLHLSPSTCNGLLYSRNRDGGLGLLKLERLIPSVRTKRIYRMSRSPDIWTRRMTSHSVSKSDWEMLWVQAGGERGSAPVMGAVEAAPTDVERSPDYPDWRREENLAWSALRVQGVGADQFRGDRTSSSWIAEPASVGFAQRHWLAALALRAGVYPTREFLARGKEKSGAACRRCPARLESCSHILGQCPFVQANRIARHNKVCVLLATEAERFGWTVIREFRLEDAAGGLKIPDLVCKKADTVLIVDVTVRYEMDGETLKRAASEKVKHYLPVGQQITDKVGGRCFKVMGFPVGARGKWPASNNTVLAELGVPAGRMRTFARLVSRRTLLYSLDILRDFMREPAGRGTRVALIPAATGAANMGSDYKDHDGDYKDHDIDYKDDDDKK
In words: pulldown; co-expressed in HEK293T, FLAG IP, cognate; more selective.
Excerpt: as §1, §2

The target of series [2] is T1, BoMo R2 RT. Kind of series: pulldown; co-expressed in HEK293T, FLAG IP, cognate.
Excerpt: as §1, §2

B1: O. latipes R2 3'UTR RNA (ssRNA)
RNA: UGAGGGGGACAGCUGGGAGUCUCGGCAUGAUUACAAAUCUUGCGCUGCACUCGGAUGUCGUCCCCGUGACGGACACAUUAAUCCGGAAAGCGAGUGGUGACUCGCCUCAAG
As for B1, the binding result with BoMo R2 RT [1] and with OrLa R2 RT was “binds” in each case.

B2: B. mori R2 3'UTR RNA (ssRNA)
RNA: UGAGCCUUGCACAGUAGUCCAGCGGUAAGGGUGUAGAUCAGGCCCGUCUGUUUCUCCCCCGGAGCUCGCUCCCUUGGCUUCCCUUAUAUAUUUUAACAUCAGAAACAGACAUUAAACAUCUACUGAUCCAAUUUCGCCGGCGUACGGCCACGAUCGGGAGGGUGGGAAUCUCGGGGGUCUUCCGAUCCUAAUCCAUGAUGAUUACGACCUGAGUCACUAAAGACGAUGGCAUGAUGAUCCGGCGAUGAAAA
Regarding B2, the binding result with BoMo R2 RT [2] was “binds”.

B3: D. simulans R2 3'UTR RNA (ssRNA)
RNA: UAGCUAAAACGUUUGGUUCAAAACAUUUGCUUGCUGUCUUGGCAUAACAUCAAUAAAGGCAUAAACAUCGCAAAAUAAUGGUUAUAUAUAAAUGGCUAUGAGGAUGGUUUUAGUACGUAGGCGUUGCGGAACUUCGGUUCAGAUAGAGCAAUGAAUCGUGCAUGCUAGGAAAACUGACCACACGCAGUGUUGGCAGCCCUAGUAUCUUUCGAUAGAUUUCCAUACCUCCGCGAUCAAAAAAAAAAAAAAAAAAAAAAA
With B3, the binding result in the series with BoMo R2 RT [1] is reported as “binds”.
